Test results taken from the supplement of paper PMC9170038.

What follows are sequences tested on K4 kissing-loop RNA reporter (assay: apparent KD of K4 kissing-loop reporter; higher = weaker reporter binding). Conditions: Eterna round: R107; input ligand: theophylline 20 uM.
Procedure: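 RNA-MaP round R107: designed RNA switches with theophylline, tryptophan, arginine or FMN aptamers are transcribed on-chip within common flanks. They are titrated with a labelled K4 kissing-loop RNA reporter in RNA-MaP buffer (100 mM Tris pH 7.5, 80 mM KCl, 4 mM MgCl2), without ligand or with the indicated ligand. Median apparent KD per design.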
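Also: bound reporter read as fluorescence of individual clusters on recovered sequencing chips by microscopy, with normalized cluster intensities fitted with a binding model.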

Sequence | apparent KD of K4 kissing-loop reporter [µM]
AAAUUCUUUUUUUUAUUUAACUUUUCAGAAGGAGCGUGGUAGUACACAGGUAGGUCGCUGAAUUUUAGACUAGUGAUGUUAGUUA [JR_SSArginiA_Sub008] | 0.182
CGUCGGUAGUGAUGUUGCCACGACGCUUUUAAGGAUAUAAGCUAAGUUAGAAGGUAAGAGAGUCAGCCCGGUGGCCUUAGAGUAG [theeternabot_exclusion_KL_FMN_A_17] | 0.162
AGUUCUUGCCGAAGGAGCGAGGCAGAGUGAUGUUCUGCAAGAGGUCGAAAGACCUCACUGCCUCAGGUAGGUCGCGGCAUGAACA [Omei KL Arginine B Exc A v4] | 0.602
AAGCGUAAAAUGGCGGACAUACUGCUCCCACGAGGACCGGUACGGCCGCCACUCGAAUGCGGCAGUGAUGUUGCCGCCUUAGCGU [KL-XTryp-A19] | 0.0752
GGUAGCAUGGCGGCCGCCACUAAGAGAGUGAUGUUCUCUUAGUUUUUUGAUAUAUUAUCAAUUCUUAGGACCGGGCCAUGCUACC | 0.0989
CCCGUACCAGUGAUGUUGGUAUGGUCUGAUACCAGUCUGUAGUCGGGCCCUUGGCAGCAGACCCUUGCCAAGGUGACGACUCCGG [Qu] | 0.131
GCAACAUUGGUAGGAUAUCAUUCUGAGUGAUGUUCAGGGUUCAGCUAACGAAAGUUAGUUGUACCAUGAGAAGGGCUAAUGUUGC [Omei KL FMN B SS A v5] | 0.82
UGCUGGUCAUAGCGUAGUGUGAGCCGCUCACGAGGACCGGUACGGCCGCCACUCGUUACAAAGCAGUGAUGUUGCAAUAGGCUCU [theeternabot_sameState_KL_Trp_A_24] | 0.417

Same assay, conditions: Eterna round: R107; input ligand: tryptophan 2.4 mM

Sequence | apparent KD of K4 kissing-loop reporter [µM]
GGAUAGGACAGAGGAUAUGGCAGUCUACAAAGUAGGCUGAAAUAAAUCCUUGAAUGGAGUGAUGUUCCAGAAGGCUGUCCUAUCG [FmnBX 23 #SwitchBubble #StaticStem #Palindromic] | 0.172
AGGCACGAGCAAGGAUAUCGAGUAGAGUGAUGUUCUGCCUGGGUUGGCUCGAAAGGGCCUUCCCAGCGAGAAGGUGCUCGUGCCU [#2 Same State - FMN A Attempt #14 (HarryS)] | 0.619
AAUAACUAGUAUAUUUUUAAUAAUACAGAUACCAGUGAUAAUAGACACCCUUGGCAGCUGAUCGAGUGAUGUUCGUUUAUUUUAA [#11 K4 Theophylline A Same State] | 0.0647
GGUGGCGUUGUUGACAGCUCACCACGAGCCAAGGAUAUAGUUUCUUCUAGAAGGUGGAAUGACAAGUGAUGUUUGUACGACUGCU [theeternabot_exclusion_KL_FMN_A_28] | 0.185
AGCUAUUAGACGGCCGCCACUUGCUCUGAGACCUGACAUGGAACCAGUGAUGUUGGUUUGCGUGUAAGGACCGGGUUUGGUGGCG [Tiesbi] | 0.104
UGUAAGCGCGUAGAUACCAGCAGACGAGUGAUGUUCGAGAGAUUAAGGAAAAGAAAGUAAUGCCCUUGGCAGCUAAUCAUAAGCG [whbob_Ex_Theo_B_sa94] | 0.174
GAUUCAGUGAUGUUGGAAGGCGAGCGGGAUACCAGCCGAGACUCAGGCCCUUGGCAGCCCACAUAUCCCAGGUAGAUAGUAGAUC [Same State - Theophylline A (Freestyle 8)] | 0.135
GUGCAGUGAUGUUGCACGAGGAAAGACGAUACCAGCCGUAAAUAAGGCCCUUGGCAGCGUGGGCUAGCACAAAAUAUGCUAGUCU [Laleingeat] | 0.117
GUUGUCUACCAGAGGUGAUGUAUAGUAUCGCGAGGACCGGUACGGCCGCCACUCGUGAAGAGAAAGGAGUGAUGUUCCGUAAUGG [C10] | 0.118
AUUUAAUUAACUGAUACCAGACUUUUUGUUUUGUAUAUUACUAGUGAUGUUAGUGUUUCUGUCCCUUGGCAGCAGUAUCUACUUA [JR_ExcTheophyB_Sub016] | 0.157
GCCGUAGAUGGAAGGAGCGUGGUCUAGAAGCACAAGUGAUGUUUGUGGUAACCUUCUGACCCACAGGUAGGUCGCCAUCUACGGC | 0.0821
AUGUAUAUCUCAGGAUAUAUAUGUGUGUGGUGUAUACAUAGUGAUGUUGUGUAUAUCCACAUAUGUAUAGAAGGGAGAUGUGCAU [Skye_SS_FMNB] | 0.072
GGACGACAGUCGGCCGCCACUCACAGCCGAGUGAUGUUCGGGAUUGUAGCGGAGUGAUGUUUCGCGAGGACCGGGACUGCAGUCC [Same State Typtophan B GF 27] | 0.141
AGAGAGGUGUUUUUUUGAUGUGAGUAAUGGCGAGGACCGGUACGGCCGCCACUCGGGUGAUGUUAGUGAUGUUGAUGUAGUGAUG [p'pmullin] | 0.077
UGUAUGUGAUUUGAUACCAGACCAGCUGGUGUUAGAUGAGUGAUGUUGAUCUAGGGUUGGGUCCCUUGGCAGCAAAUCGCAUACU [KL-SSTheoB22] | 0.463
CAAGGACGGCCGUAGGCAUACCGUCGAUUCAAGGAUAUCAAGAGAAUGAGAAGGUGAAGUUUAUACAGUGAUGUUGCUAUAGAGA [theeternabot_sameState_KL_FMN_A_6] | 0.152

Sequence | apparent KD of K4 kissing-loop reporter [µM]
AGACUACCUACACUGUCAAUAGACAGUGACUAGGAUAUGCUGAUAAGCAGAAGGAGUGAUGUUCCUAAUAAAAGGUGGUAGUCAU [FmnAX 19 #SwitchBubble #StaticStem #K4Early] | 0.173
UGACUGGAUGGAAGGAGCGCUAAACUCCUAGUGAUGUUAGGGAUACGAGACAAAGUCUUGAAGCAGGUAGGUCGCCAUCUAGUCU [FiskerMod 10 - Jieux - Same State - Arginine B] | 0.138
GCCUAGCAGGGAAGGAGCGCCAGGAGAAGAAAUGGAGAGAGUUGAGUGAUGUUCAAAUGGUGGCAGGUAGGUCGCCCUGCUAGGC [KL-SSArg B12] | 0.274
GACGGGUUGCUGCUCAAUCCGUCGCAUGAUCGAGGACCGGUACGGCCGCCACUCGAGGCCAUGCCGUACGAGUGAUGUUCGUGCG [Xeerlaus] | 0.19
AUGCGCGCGGCGGCCGCCACUCGCAUGAGAGUGAUGUUCUCGCCGGGCCCGCAAGGGCCCGGUGUGAGGACCGGGCCGGGCUGCG [#2 Same State - Tryptophan B Attempt #18 (HarryS)] | 0.136
GUUCGAUUCUGAGUGAUGUUGAGAAUUGAGAAGGAUAUCCAGAAAAGGAGAAGGUCUACGUCAUGCGCCUCGAUUUGCUAGCUGC [theeternabot_exclusion_KL_FMN_A_50] | 0.609
UGGCGGACGAUCCGGAGUGAUGUUCCGGAUACCAGCAGAAGAGCCUGCCCUUGGCAGCCGUGCGACGCUGGGAGAGUCCGGCGUC [Requered] | 0.0997
GAAUUAUGUAGAAGGAGCGUUAGAAGGUAUAGGUGCGAGUGAUGUUUGGAUUUGUUAAUUUGACAGGUAGGUCGCUACAGAAGGA [KL-SSArg B18 #analogue] | 0.306
AAAUUCUUUUUUUUAUUUAACUUUUCAGAAGGAGCGUGGUAGUACACAGGUAGGUCGCUGAAUUUUAGACUAGUGAUGUUAGUUA [JR_SSArginiA_Sub008] | 0.151
CGUCGGUAGUGAUGUUGCCACGACGCUUUUAAGGAUAUAAGCUAAGUUAGAAGGUAAGAGAGUCAGCCCGGUGGCCUUAGAGUAG [theeternabot_exclusion_KL_FMN_A_17] | 0.151
AGUUCUUGCCGAAGGAGCGAGGCAGAGUGAUGUUCUGCAAGAGGUCGAAAGACCUCACUGCCUCAGGUAGGUCGCGGCAUGAACA [Omei KL Arginine B Exc A v4] | 1.05
AAGCGUAAAAUGGCGGACAUACUGCUCCCACGAGGACCGGUACGGCCGCCACUCGAAUGCGGCAGUGAUGUUGCCGCCUUAGCGU [KL-XTryp-A19] | 0.0761
GGUAGCAUGGCGGCCGCCACUAAGAGAGUGAUGUUCUCUUAGUUUUUUGAUAUAUUAUCAAUUCUUAGGACCGGGCCAUGCUACC | 0.1
CCCGUACCAGUGAUGUUGGUAUGGUCUGAUACCAGUCUGUAGUCGGGCCCUUGGCAGCAGACCCUUGCCAAGGUGACGACUCCGG [Qu] | 0.132
GCAACAUUGGUAGGAUAUCAUUCUGAGUGAUGUUCAGGGUUCAGCUAACGAAAGUUAGUUGUACCAUGAGAAGGGCUAAUGUUGC [Omei KL FMN B SS A v5] | 0.989
UGCUGGUCAUAGCGUAGUGUGAGCCGCUCACGAGGACCGGUACGGCCGCCACUCGUUACAAAGCAGUGAUGUUGCAAUAGGCUCU [theeternabot_sameState_KL_Trp_A_24] | 0.156
